Target: T1, Phospholipase Cβ3 (PLCβ3), wild type (UniProt Q01970 10-1234)
T1 construct: Phospholipase Cβ3; The CTD linker and distal CTD are disordered in the structures; also called wild-type PLCβ3
T1 sequence: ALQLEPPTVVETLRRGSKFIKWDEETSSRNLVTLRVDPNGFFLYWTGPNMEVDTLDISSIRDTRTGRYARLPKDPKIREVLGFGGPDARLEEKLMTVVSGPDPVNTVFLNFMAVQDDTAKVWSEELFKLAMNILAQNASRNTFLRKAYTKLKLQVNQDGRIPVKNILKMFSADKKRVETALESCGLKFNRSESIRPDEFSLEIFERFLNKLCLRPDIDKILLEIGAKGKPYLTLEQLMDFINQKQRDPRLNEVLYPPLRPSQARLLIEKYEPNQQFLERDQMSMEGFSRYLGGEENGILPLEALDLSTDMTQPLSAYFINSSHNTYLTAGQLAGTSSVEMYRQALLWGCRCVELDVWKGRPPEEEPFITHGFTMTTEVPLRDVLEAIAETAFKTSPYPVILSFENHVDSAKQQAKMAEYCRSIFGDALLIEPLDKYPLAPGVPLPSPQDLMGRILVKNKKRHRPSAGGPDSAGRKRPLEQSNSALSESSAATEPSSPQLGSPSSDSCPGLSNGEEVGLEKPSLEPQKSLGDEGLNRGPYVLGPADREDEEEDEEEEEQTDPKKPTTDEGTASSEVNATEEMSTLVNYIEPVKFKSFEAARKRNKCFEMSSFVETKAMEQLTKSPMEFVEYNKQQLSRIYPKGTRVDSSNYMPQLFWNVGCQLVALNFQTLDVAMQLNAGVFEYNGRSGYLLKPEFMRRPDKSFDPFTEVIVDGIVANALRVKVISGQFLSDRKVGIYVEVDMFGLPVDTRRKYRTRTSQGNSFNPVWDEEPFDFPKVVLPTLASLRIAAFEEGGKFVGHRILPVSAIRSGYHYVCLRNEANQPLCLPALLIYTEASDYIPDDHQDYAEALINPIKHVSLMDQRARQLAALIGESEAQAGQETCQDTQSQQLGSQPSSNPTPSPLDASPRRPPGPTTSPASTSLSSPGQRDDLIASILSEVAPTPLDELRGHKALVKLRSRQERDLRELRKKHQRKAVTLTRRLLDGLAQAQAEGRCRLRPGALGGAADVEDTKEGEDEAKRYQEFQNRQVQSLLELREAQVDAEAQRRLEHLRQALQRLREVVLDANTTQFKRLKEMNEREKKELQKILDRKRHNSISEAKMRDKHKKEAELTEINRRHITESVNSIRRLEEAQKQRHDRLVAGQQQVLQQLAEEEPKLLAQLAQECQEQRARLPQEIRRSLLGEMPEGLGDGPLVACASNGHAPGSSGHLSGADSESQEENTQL
Assay: cryo-EM structure; PLCβ3 mixed with wildtype Gαq bound to GDP-AlF4, then added to 2DOPE:1POPC:1POPS (wt:wt:wt) vesicles with reconstituted lipidated Gβγ; 3.4 Å
Details: both partners purified

B1: Gαq, wild type, nonlipidated, bound to GDP-AlF4 (natural protein)
chain: MACCLSEEAKEARRINDEIERQLRRDKRDARRELKLLLLGTGESGKSTFIKQMRIIHGSGYSDEDKRGFTKLVYQNIFTAMQAMIRAMDTLKIPYKYEHNKAHAQLVREVDVEKVSAFENPYVDAIKSLWNDPGIQECYDRRREYQLSDSTKYYLNDLDRVADPAYLPTQQDVLRVRVPTTGIIEYPFDLQSVIFRMVDVGGQRSERRKWIHCFENVTSIMFLVALSEYDQVLVESDNENRMEESKALFRTIITYPWFQNSSVILFLNKKDLLEEKIMYSHLVDYFPEYDGPQRDAQAAREFILKMFVDLNPDSDKIIYSHFTCATDTENIRFVFAAVKDTILQLNLKEYNLV
notes: In the structures the N terminus is disordered until position 38; Construct limits, any chimeric N terminus, host and tags are described only in SI Appendix, Materials and Methods; also called wildtype Gαq; wild-type Gαq
- stoichiometry N: 1

— article PMC10691244, “The mechanism of Gαq regulation of PLCβ3-catalyzed PIP2 hydrolysis” (Proceedings of the National Academy of Sciences of the …, 2023)
